In patent US7838501:

What was measured:
[1] = target: chimeric transactivator λR-GyrB-NFκB (wild type λ repressor N-terminal domain) (bacteriophage λ; Escherichia coli); assay: cell-based or functional assay
[2] = target: chimeric transactivator λR-GyrB-NFκB with λ repressor mutation S93G (mutant clone 25) (bacteriophage λ; Escherichia coli); assay: cell-based or functional assay

Substance: chimeric transactivator λR-GyrB-NFκB (wild type λ repressor N-terminal domain)
- inducibility of luciferase activity, 5 nM coumermycin 40 hr, transient transfection of 293A cells [1]: 50 fold

Substance: chimeric transactivator λR-GyrB-NFκB with λ repressor mutation S93G (mutant clone 25)
- Activation factor, clone 5 [2]: 5100 fold
- Activation factor, clone 8 [2]: 1500 fold
- Activation factor, clone 10 [2]: 3200 fold
- Activation factor, clone 18 [2]: 5800 fold
- Activation factor, clone 23 [2]: 14000 fold
- Activation factor, clone 28 [2]: 5100 fold
- Activation factor, clone 34 [2]: 5800 fold
- Activation factor, clone 44 [2]: 13000 fold
- Activation factor, clone 45 [2]: 1600 fold
- Activation factor, clone 47 [2]: 2100 fold
- Luciferase Activity, With Coum (5 nM), clone 5 (Arbitrary Light Units/µg protein) [2]: 47500
- Luciferase Activity, With Coum (5 nM), clone 8 (Arbitrary Light Units/µg protein) [2]: 52400
- Luciferase Activity, With Coum (5 nM), clone 10 (Arbitrary Light Units/µg protein) [2]: 1590
- Luciferase Activity, With Coum (5 nM), clone 18 (Arbitrary Light Units/µg protein) [2]: 7450
- Luciferase Activity, With Coum (5 nM), clone 23 (Arbitrary Light Units/µg protein) [2]: 8240
- Luciferase Activity, With Coum (5 nM), clone 28 (Arbitrary Light Units/µg protein) [2]: 12300
- Luciferase Activity, With Coum (5 nM), clone 34 (Arbitrary Light Units/µg protein) [2]: 47000
- Luciferase Activity, With Coum (5 nM), clone 44 (Arbitrary Light Units/µg protein) [2]: 30200
- Luciferase Activity, With Coum (5 nM), clone 45 (Arbitrary Light Units/µg protein) [2]: 1910
- Luciferase Activity, With Coum (5 nM), clone 47 (Arbitrary Light Units/µg protein) [2]: 8530
- Luciferase Activity, Without Coum, clone 5 (Arbitrary Light Units/µg protein) [2]: 9.4
- Luciferase Activity, Without Coum, clone 8 (Arbitrary Light Units/µg protein) [2]: 35.8
- Luciferase Activity, Without Coum, clone 10 (Arbitrary Light Units/µg protein) [2]: 0.5
- Luciferase Activity, Without Coum, clone 18 (Arbitrary Light Units/µg protein) [2]: 1.3
- Luciferase Activity, Without Coum, clone 23 (Arbitrary Light Units/µg protein) [2]: 0.6
- Luciferase Activity, Without Coum, clone 28 (Arbitrary Light Units/µg protein) [2]: 2.4
- Luciferase Activity, Without Coum, clone 34 (Arbitrary Light Units/µg protein) [2]: 8.1
- Luciferase Activity, Without Coum, clone 44 (Arbitrary Light Units/µg protein) [2]: 2.4
- Luciferase Activity, Without Coum, clone 45 (Arbitrary Light Units/µg protein) [2]: 1.2
- Luciferase Activity, Without Coum, clone 47 (Arbitrary Light Units/µg protein) [2]: 4.1
- coumermycin concentration of maximal induction of luciferase, stable clone S93G-5, 40 hr [2]: 2.5 to 5 nM
- induction of luciferase activity, 5 nM coumermycin 40 hr, 293A cells with stable pLuc [2]: 1460 fold
- lowest coumermycin concentration with apparent induction of luciferase expression, stable clone S93G-5, 40 hr [2]: 0.5 nM
- suppression of coumermycin-induced (5 nM) luciferase expression by 5 µM novobiocin, 40 hr [2]: > 98%
